Data on six substances can be found in paper PMC12146755.

Assay [1] has as its target CD3ε (antigen of the surface plasmon resonance) (human) (UniProt P07766). Nature of the assay: SPR; format and conditions not given in the main text (SI Appendix, Fig. S1 D-F).
Target sequence in this assay (P07766 23-207): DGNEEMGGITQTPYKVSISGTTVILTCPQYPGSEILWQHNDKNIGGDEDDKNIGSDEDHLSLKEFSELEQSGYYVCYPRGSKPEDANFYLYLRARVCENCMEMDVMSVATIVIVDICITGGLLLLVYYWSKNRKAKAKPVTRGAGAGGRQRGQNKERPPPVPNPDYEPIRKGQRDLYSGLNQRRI
Assay [2] has the same target. Briefly: SPR. As to conditions: bispecific antibody.
Target sequence in this assay (P07766 23-126): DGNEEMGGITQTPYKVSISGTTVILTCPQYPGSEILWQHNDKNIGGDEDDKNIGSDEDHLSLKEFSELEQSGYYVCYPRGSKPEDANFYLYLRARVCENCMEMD
The target of assay [3] is Her2 (antigen of the surface plasmon resonance) (human) (UniProt P04626). Nature of the assay: SPR. As to conditions: bispecific antibody.

The substance “Bispecific T cell engager Format A (anti-Her2 x anti-CD3ε, IgG1-based) (bispecific antibody)” yielded a Kd in assay [1] of under 10 nM.
As for “Bispecific T cell engager Format A (anti-Her2 x anti-CD3ε, IgG1-based) (from UniProt P01857)”, the Kd in assay [2] was found to be 3.8 nM; in assay [3] it was 0.156 nM.
In the case of “Bispecific T cell engager Format B (anti-Her2 x anti-CD3ε, IgG1-based) (bispecific antibody)”, in assay [1], the Kd is under 10 nM.
In the case of “Bispecific T cell engager Format B (anti-Her2 x anti-CD3ε, IgG1-based) (from UniProt P01857)”, the Kd in assay [2] was 4.2 nM; in assay [3], 0.249 nM.
“Bispecific T cell engager Format C (anti-Her2 x anti-CD3ε, IgG1-based) (bispecific antibody)” had a Kd in assay [1] of under 10 nM.
“Bispecific T cell engager Format C (anti-Her2 x anti-CD3ε, IgG1-based) (from UniProt P01857)”: the Kd in assay [2] was determined as 5.4 nM; in assay [3], 0.086 nM.
